# Values quoted from earlier work as cited in publication PMC3277744.
# Target: Bcl-XL (Homo sapiens) (UniProt Q07817)
# Sequence (Q07817 whole entry): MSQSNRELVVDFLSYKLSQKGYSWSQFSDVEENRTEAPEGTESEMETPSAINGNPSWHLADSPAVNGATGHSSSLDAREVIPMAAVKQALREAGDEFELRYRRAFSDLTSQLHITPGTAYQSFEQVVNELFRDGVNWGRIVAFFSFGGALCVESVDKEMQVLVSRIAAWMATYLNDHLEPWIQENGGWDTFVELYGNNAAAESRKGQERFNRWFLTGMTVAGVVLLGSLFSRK
substance,measurement,value
p53 (from UniProt P04637),Kd,164 nM
